Literature values, collected in paper PMC7460888.

Biological target: SARS-CoV-2 spike RBD RBD (SARS-CoV-2) (UniProt P0DTC2)

Substance: SBP1 (ACE2 alpha1 helix peptide)
- Kd: 0.047 µM
